# B1: RANTES: inflammatory chemokine (protein, UniProt P13501 24-91, looked up)
# C-C motif chemokine 5: SPYSSDTTPCCFAYIARPLPRAHIKEYFYTSGKCSNPAVVFVTRKNRQVCANPEKKWVREYINSLEMS
# Test system: human NPC
# Test: Plating assay: NPC colony formation / quiescence
# Assay type: cell-based
# Settings: fraction less than 30,000 Da after size-exclusion column
# Protocol: Cells and Materials: Normal human NPC were obtained from Clonetics Corp (San Diego, Calif.), and grown in neural progenitor maintenance medium (Clonetics) with human recombinant basic fibroblast growth factor, epidermal growth factor, neural survival factors and antibiotics. These cells were derived as described previously (Svendsen (1998) J. Neurosci. Meth. 85:141-152).
# Plating Assay: On day 0, HIV coat proteins at a concentration of 800 pM, or CSF at a concentration of 2% was added to cultures of NPC. Each protein or CSF sample was tested in triplicate. Cultures were incubated for seven days, and then cells were plated onto 24 well polyethylene-imine coated plates. The number of cell colonies having more than 20 cells with typical neuronal morphology was counted for each well after 7 days in culture. Determinations of colony inhibition for all proteins and CSF samples were done on each of three different lots of NPC. […]
# The ability of HIV coat proteins to induce quiescence in human NPC was tested using NPC in the form of neurospheres. […] The number of colonies containing more than 20 cells with typical neuronal morphology was counted after 7 days in culture. […] None of the coat proteins induced cell death in NPC, as determined by trypan blue staining (>95% viability in all coat-protein treated cultures). […]
molecule,measurement,value
B1,effect on NPC in the plating assay,inhibit NPC
